PMC6684660, “ABCG1 contributes to suberin formation in Arabidopsis thaliana roots” (Scientific Reports, 2019)
Residue numbers refer to the chain shown, from its start. Names and notes keep the numbering of the source.

B1: AtABCG1 (Arabidopsis thaliana) (protein)
chain: MARIVAANDDDSMELNTISSIHDSTLGQLLKNVSDVRKMAIGDETPVHESLNQDYNDGYMRTVPFVLSFDNLTYNVSVRPKLDFRNLFPRRRTEDPEIAQTARPKTKTLLNNISGETRDGEIMAVLGASGSGKSTLIDALANRIAKGSLKGTVKLNGETLQSRMLKVISAYVMQDDLLFPMLTVEETLMFAAEFRLPRSLPKSKKKLRVQALIDQLGIRNAAKTIIGDEGHRGISGGERRRVSIGIDIIHDPILLFLDEPTSGLDSTSAFMVVKVLKRIAQSGSIVIMSIHQPSHRVLGLLDRLIFLSRGHTVYSGSPASLPRFFTEFGSPIPENENRTEFALDLIRELEGSAGGTRGLIEFNKKWQEMKKQSNRQPPLTPPSSPYPNLTLKEAIAASISRGKLVSGGESVAHGGATTNTTTLAVPAFANPMWIEIKTLSKRSMLNSRRQPELFGIRIASVVITGFILATVFWRLDNSPKGVQERLGFFAFAMSTMFYTCADALPVFLQERYIFMRETAYNAYRRSSYVLSHAIVSFPSLIFLSVAFAATTYWAVGLDGGLTGLLFYCLIILASFWSGSSFVTFLSGVVPSVMLGYTIVVAILAYFLLFSGFFINRNRIPDYWIWFHYMSLVKYPYEAVLQNEFSDATKCFVRGVQIFDNTPLGELPEVMKLKLLGTVSKSLGVTISSTTCLTTGSDILRQQGVVQLSKWNCLFITVAFGFFFRILFYFTLLLGSKNKRR
notes: full-length half-size transporter, N-terminal tag (CBP, His detected) kept, expressed in Pichia pastoris X33, purified in Fos-Choline-14, 86 kDa with tag, homodimer
B2: AtABCG1 (Arabidopsis thaliana; E259Q/H291A) (protein)
chain: B1 chain with E259Q, H291A
notes: as for B1

Substrate: Nc1ncnc2c1ncn2[C@@H]1O[C@H](COP(=O)(O)OP(=O)(O)OP(=O)(O)O)[C@@H](O)[C@H]1O
Test: malachite green ATPase assay
Assay type: biochemical, Arabidopsis thaliana
Settings: ATP 0-8 mM, 10 mM MgCl2, 25 °C
Excerpt: malachite green ATPase assay on AtABCG1

[1] = Fos-Choline-14, EQ/HA background subtracted
[2] = Fos-Choline-14, hydrolysis-deficient mutant used as background control

Row | Protein | Km [1] | Vmax [1] | Km [2] | Vmax [2]
1 | B1 | 1800 ± 100 µM | 0.0188 µmol/min/mg |  | 
2 | B2 |  |  | 700 ± 400 µM | 0.0017 µmol/min/mg
